Experimental data: patent US20040086528A1
Several values for one entry are separate records, joined by “and”; a condition that tells them apart may be missing. Equal values may be shown once.

What was measured:
[1] = target: chemokine receptor C-C CKR-5 (human) (human) (UniProt P51681); assay: 125I-MIP-1β (0.1 nM) competition on activated CD4+ T cells; gp120 at 0.1 µg/ml
[2] = target: chemokine receptor C-C CKR-5 (human) (human) (UniProt P51681); assay: 125I-MIP-1β (0.1 nM) competition on activated CD4+ T cells; gp120 at .05 µg/ml [sic]
[3] = target: chemokine receptor C-C CKR-5 (human) (human) (UniProt P51681); assay: 125I-MIP-1β (0.1 nM) competition on activated CD4+ T cells; gp120 at 0.2 µg/ml
[4] = target: CD4 on the cell surface (human) (human) (UniProt P01730); assay: cell-based or functional assay
[5] = target: chemokine receptor C-C CKR-5 (human) (human) (UniProt P51681); assay: 125I-MIP-1β (0.1 nM) competition on activated CD4+ T cells; gp120 at 20 µg/ml
[6] = target: CCR5 D2A/D11A/E18A, HA-tagged (human) (UniProt P51681); assay: cell-based or functional assay
[7] = target: CCR5 E18A, HA-tagged (human) (UniProt P51681); assay: cell-based or functional assay
[8] = target: CCR5 Y184A, HA-tagged (human) (UniProt P51681); assay: cell-based or functional assay
[9] = target: chemokine receptor C-C CKR-5 (human) (human) (UniProt P51681); assay: cell-based or functional assay
[10] = target: CCR5 R31A, HA-tagged (human) (UniProt P51681); assay: cell-based or functional assay
[11] = target: CCR5 K191A/N192A, HA-tagged (human) (UniProt P51681); assay: cell-based or functional assay
[12] = target: CCR5 K171A/E172A, HA-tagged (human) (UniProt P51681); assay: cell-based or functional assay
[13] = target: CCR5 H175A, HA-tagged (human) (UniProt P51681); assay: cell-based or functional assay
[14] = target: CCR5 Q188A, HA-tagged (human) (UniProt P51681); assay: cell-based or functional assay
[15] = target: CCR5 K22A, HA-tagged (human) (UniProt P51681); assay: cell-based or functional assay
[16] = target: CCR5 R274A/D276A, HA-tagged (human) (UniProt P51681); assay: cell-based or functional assay
[17] = target: CCR5 D11A, HA-tagged (human) (UniProt P51681); assay: cell-based or functional assay
[18] = target: CCR5 H181A, HA-tagged (human) (UniProt P51681); assay: cell-based or functional assay
[19] = target: CCR5 N13A, HA-tagged (human) (UniProt P51681); assay: cell-based or functional assay
[20] = target: wild-type CCR5, HA-tagged at the C-terminus (human) (UniProt P51681); assay: cell-based or functional assay
[21] = target: CCR5 K26A, HA-tagged (human) (UniProt P51681); assay: cell-based or functional assay
[22] = target: CCR5 D2A, HA-tagged (human) (UniProt P51681); assay: cell-based or functional assay
[23] = target: CCR5 D95A, HA-tagged (human) (UniProt P51681); assay: cell-based or functional assay
[24] = target: CCR5 Q102A, HA-tagged (human) (UniProt P51681); assay: cell-based or functional assay
[25] = target: CCR5 E262A, HA-tagged (human) (UniProt P51681); assay: cell-based or functional assay
[26] = target: CCR5 Q93A, HA-tagged (human) (UniProt P51681); assay: cell-based or functional assay
[27] = target: recombinant, monomeric JR-FL gp120 (full-length) (HIV-1 JR-FL) (UniProt P20871); assay: JR-FL gp120 (2 µg/ml) against 125I-MIP-1β on activated CD4+ T cells; antibody at 20 µg/ml
[28] = target: chemokine receptor C-C CKR-5 (human) (human) (UniProt P51681); assay: 125I-MIP-1β (0.1 nM) competition on activated CD4+ T cells; gp41 at 5 µg/ml
[29] = target: chemokine receptor C-C CKR-5 (human) (human) (UniProt P51681); assay: 125I-MIP-1β competition on CD4- CCR-5+ 293 cells; gp120 at 50 µg/ml; strongest competition observed
[30] = target: wild-type CCR5, HA-tagged at the C-terminus (human) (UniProt P51681)
[31] = target: chemokine receptor C-C CKR-5 (human) (human) (UniProt P51681); assay: 125I-MIP-1β (0.1 nM) competition on activated CD4+ T cells; gp120 at 5 µg/ml
[32] = target: chemokine receptor C-C CKR-5 (human) (human) (UniProt P51681); assay: 125I-MIP-1β competition, CD4- CCR-5+ 293 cells against activated CD4+ T cells
[33] = target: chemokine receptor C-C CKR-5 (human) (human) (UniProt P51681); assay: 125I-MIP-1β (0.1 nM) competition on activated CD4+ T cells; gp120 at 50 µg/ml
[34] = target: HIV-1 JR-FL envelope glycoproteins (membrane-bound gp120/gp41) (HIV-1 JR-FL); assay: cell-based or functional assay

92TH014 gp120 (monomeric)
percentage inhibition of 125I-MIP-1β binding [1]: 6% | percentage inhibition of 125I-MIP-1β binding [2]: 65% | percentage inhibition of 125I-MIP-1β binding [3]: 57%

CD4 MAb OKT4a (antibody)
% Fusion (RET), LW5 CD4+ cells with HeLa-BRU cells, OKT4A at 3 ug/ml [4]: 0% | % Fusion (RET), LW5 CD4+ cells with HeLa-JR-FL cells, OKT4A at 3 ug/ml [4]: 0%

CM243 gp120
percentage inhibition of 125I-MIP-1β binding [1]: 17% | percentage inhibition of 125I-MIP-1β binding [5]: 76% | percentage inhibition of 125I-MIP-1β binding [2]: 56% | percentage inhibition of 125I-MIP-1β binding [3]: 40%

HIV-1 JR-FL envelope glycoproteins (membrane-bound gp120/gp41)
co-receptor function of CCR5 (HIV-1 entry, luciferase), fold reduction [6]: 50 fold | co-receptor function of CCR5 (HIV-1 entry, luciferase), fold reduction [7]: 15 fold and 20 fold

MIP-1α, recombinant human (from UniProt P10147 27-92) (ligand)
relative % inhibition of NLluc/JR-FL entry into U87MG-CD4 cells by 2 µg/ml chemokine (wild-type = 100) [8]: 102% | % Fusion (RET), LW5 CD4+ cells with HeLa-JR-FL cells, chemokine at 533 ng/ml [9]: 72% | % Fusion (RET), PM1 cells with HeLa-JR-FL cells, chemokine at 400 ng/ml [9]: 39% | % luciferase activity, entry of ADA env-complemented virus into PM1 cells, chemokine at 100 ng/ml [9]: 54% | % luciferase activity, entry of BaL env-complemented virus into PM1 cells, chemokine at 100 ng/ml [9]: 54% | relative % inhibition of NLluc/JR-FL entry into U87MG-CD4 cells by 2 µg/ml chemokine (wild-type = 100) [10]: -5% | relative % inhibition of NLluc/JR-FL entry into U87MG-CD4 cells by 2 µg/ml chemokine (wild-type = 100) [11]: 14% | relative % inhibition of NLluc/JR-FL entry into U87MG-CD4 cells by 2 µg/ml chemokine (wild-type = 100) [12]: 21% | relative % inhibition of NLluc/JR-FL entry into U87MG-CD4 cells by 2 µg/ml chemokine (wild-type = 100) [13]: 119% | relative % inhibition of NLluc/JR-FL entry into U87MG-CD4 cells by 2 µg/ml chemokine (wild-type = 100) [14]: 95% | relative % inhibition of NLluc/JR-FL entry into U87MG-CD4 cells by 2 µg/ml chemokine (wild-type = 100) [15]: 19% | relative % inhibition of NLluc/JR-FL entry into U87MG-CD4 cells by 2 µg/ml chemokine (wild-type = 100) [16]: 48% | relative % inhibition of NLluc/JR-FL entry into U87MG-CD4 cells by 2 µg/ml chemokine (wild-type = 100) [17]: 10% | relative % inhibition of NLluc/JR-FL entry into U87MG-CD4 cells by 2 µg/ml chemokine (wild-type = 100) [18]: 29% | relative % inhibition of NLluc/JR-FL entry into U87MG-CD4 cells by 2 µg/ml chemokine (wild-type = 100) [7]: 100% | relative % inhibition of NLluc/JR-FL entry into U87MG-CD4 cells by 2 µg/ml chemokine (wild-type = 100) [19]: 121% | relative % inhibition of NLluc/JR-FL entry into U87MG-CD4 cells by 2 µg/ml chemokine (wild-type = 100) [20]: 100% | relative % inhibition of NLluc/JR-FL entry into U87MG-CD4 cells by 2 µg/ml chemokine (wild-type = 100) [21]: 100% | relative % inhibition of NLluc/JR-FL entry into U87MG-CD4 cells by 2 µg/ml chemokine (wild-type = 100) [22]: 81% | relative % inhibition of NLluc/JR-FL entry into U87MG-CD4 cells by 2 µg/ml chemokine (wild-type = 100) [23]: 107% | relative % inhibition of NLluc/JR-FL entry into U87MG-CD4 cells by 2 µg/ml chemokine (wild-type = 100) [24]: 107% | relative % inhibition of NLluc/JR-FL entry into U87MG-CD4 cells by 2 µg/ml chemokine (wild-type = 100) [25]: 100% | relative % inhibition of NLluc/JR-FL entry into U87MG-CD4 cells by 2 µg/ml chemokine (wild-type = 100) [26]: 88%

SF170 gp120
percentage inhibition of 125I-MIP-1β binding [1]: 87% | percentage inhibition of 125I-MIP-1β binding [3]: 140%

W61D gp120
percentage inhibition of 125I-MIP-1β binding [1]: 39% | percentage inhibition of 125I-MIP-1β binding [5]: 86% | percentage inhibition of 125I-MIP-1β binding [2]: 65% | percentage inhibition of 125I-MIP-1β binding [3]: 53%

antibody D7324
Inhibition (%) of the gp120 competitive effect on 125I-MIP-1β binding [27]: -13%

monoclonal antibody 2G12
Inhibition (%) of the gp120 competitive effect on 125I-MIP-1β binding [27]: 38%

monoclonal antibody 15e
Inhibition (%) of the gp120 competitive effect on 125I-MIP-1β binding [27]: 65%

monoclonal antibody 17b
Inhibition (%) of the gp120 competitive effect on 125I-MIP-1β binding [27]: 79%

monoclonal antibody 19b
Inhibition (%) of the gp120 competitive effect on 125I-MIP-1β binding [27]: 88%

monoclonal antibody 48d
Inhibition (%) of the gp120 competitive effect on 125I-MIP-1β binding [27]: 54%

monoclonal antibody 447-D
Inhibition (%) of the gp120 competitive effect on 125I-MIP-1β binding [27]: 109%

monoclonal antibody 697-D
Inhibition (%) of the gp120 competitive effect on 125I-MIP-1β binding [27]: 3%

monoclonal antibody A32
Inhibition (%) of the gp120 competitive effect on 125I-MIP-1β binding [27]: 51%

monoclonal antibody IgG1b12
Inhibition (%) of the gp120 competitive effect on 125I-MIP-1β binding [27]: 125%

recombinant gp41 (IIIB) ectodomain
percentage inhibition of 125I-MIP-1β binding [28]: 24%

recombinant, monomeric JR-FL gp120 (full-length), P20871 32-503 (other; other documents disagree on this pair)
percent inhibition of MIP-1β binding [29]: 73% | inhibition of 2D7-PE binding (%) [30]: 70% | percentage inhibition of 125I-MIP-1β binding [31]: 67% | fold higher gp120 concentration needed on CD4- cells than on CD4+ cells [32]: > 100 fold | percentage inhibition of 125I-MIP-1β binding [1]: 44% | percentage inhibition of 125I-MIP-1β binding [33]: 95% | percentage inhibition of 125I-MIP-1β binding [5]: 91% | percentage inhibition of 125I-MIP-1β binding [2]: 58% | percentage inhibition of 125I-MIP-1β binding [3]: 40%

recombinant, monomeric LAI gp120 (full-length) (from UniProt P03377 33-516) (other; other documents disagree on this pair)
percentage inhibition of 125I-MIP-1β binding [31]: -5% | percentage inhibition of 125I-MIP-1β binding [33]: -6% | percentage inhibition of 125I-MIP-1β binding [5]: -18% | percentage inhibition of 125I-MIP-1β binding [2]: -1%

soluble, oligomeric 92RW020 gp120/gp41 complex
percentage inhibition of 125I-MIP-1β binding [1]: 21% | percentage inhibition of 125I-MIP-1β binding [2]: 74% | percentage inhibition of 125I-MIP-1β binding [3]: 49%

soluble, oligomeric JR-FL gp120/gp41 complex
percentage inhibition of 125I-MIP-1β binding [1]: 46% | percentage inhibition of 125I-MIP-1β binding [2]: 84% | percentage inhibition of 125I-MIP-1β binding [3]: 56%

synthetic ECL2 peptide of human CCR5 (from UniProt P51681 168-199)
inhibition of fusion between HeLa-envJR-FL cells and PM1 cells (RET), peptide at 11 µg/ml [34]: 15% | inhibition of fusion between HeLa-envJR-FL cells and PM1 cells (RET), peptide at 33 µg/ml [34]: 65% | inhibition of fusion between HeLa-envJR-FL cells and PM1 cells (RET), peptide at 100 µg/ml [34]: 97%
